Laboratory results as given in patent US20220133913A1 (KOREA BASIC SCIENCE INSTITUTE, published 2022).

B1: single-domain antibody VHH-25 containing lysin and His6 tags (VHH)
VHH: EVQLVESGGGSVQAGGSLRLSCVVSGYTCSVYDMIWYRQPPGKEREFVSLINSNGRTTYADSVKGRFTISQNNAKNTVYLQMNSLKPEDTAMYYCHAACYSPSRLNYWGQGTQVTVSS
notes: also called Nanobody #25-Lys; VHH-25-K1; not shown: C-terminal lysine tag and His6 tag with any linker
B2: VHH-25 (VHH)
VHH: B1 VHH
notes: also called clone 25
B3: VHH-23 (VHH)
VHH: HVQLVESGGGSVQTGGSLRLSCAASGYTSSTVYMAWFRQTPGKQREGVAAIYTGGGPTYYADSVKGRFTISQDNAKNTVYLQMNTLKPEDTAMYYCAADRYVYRLVTNWYRPSFYTYWGQGTQVTVSS
notes: also called clone 23

Columns and labels:
[1] = molecular target: T1, human αvβ3 integrin ITGAVB3 (human, UniProt P06756 31-992; P05106 27-718, limits assumed); assay: phage ELISA, coated ITGAVB3, anti-M13-HRP, 490 nm; helper phage control
T1 construct: Recombinant heterodimer used as immunogen, ELISA coating and SPR ligand; also called A5B3; A5b3
T1 sequence (P06756 31-992 limits assumed, chain 1 of 2): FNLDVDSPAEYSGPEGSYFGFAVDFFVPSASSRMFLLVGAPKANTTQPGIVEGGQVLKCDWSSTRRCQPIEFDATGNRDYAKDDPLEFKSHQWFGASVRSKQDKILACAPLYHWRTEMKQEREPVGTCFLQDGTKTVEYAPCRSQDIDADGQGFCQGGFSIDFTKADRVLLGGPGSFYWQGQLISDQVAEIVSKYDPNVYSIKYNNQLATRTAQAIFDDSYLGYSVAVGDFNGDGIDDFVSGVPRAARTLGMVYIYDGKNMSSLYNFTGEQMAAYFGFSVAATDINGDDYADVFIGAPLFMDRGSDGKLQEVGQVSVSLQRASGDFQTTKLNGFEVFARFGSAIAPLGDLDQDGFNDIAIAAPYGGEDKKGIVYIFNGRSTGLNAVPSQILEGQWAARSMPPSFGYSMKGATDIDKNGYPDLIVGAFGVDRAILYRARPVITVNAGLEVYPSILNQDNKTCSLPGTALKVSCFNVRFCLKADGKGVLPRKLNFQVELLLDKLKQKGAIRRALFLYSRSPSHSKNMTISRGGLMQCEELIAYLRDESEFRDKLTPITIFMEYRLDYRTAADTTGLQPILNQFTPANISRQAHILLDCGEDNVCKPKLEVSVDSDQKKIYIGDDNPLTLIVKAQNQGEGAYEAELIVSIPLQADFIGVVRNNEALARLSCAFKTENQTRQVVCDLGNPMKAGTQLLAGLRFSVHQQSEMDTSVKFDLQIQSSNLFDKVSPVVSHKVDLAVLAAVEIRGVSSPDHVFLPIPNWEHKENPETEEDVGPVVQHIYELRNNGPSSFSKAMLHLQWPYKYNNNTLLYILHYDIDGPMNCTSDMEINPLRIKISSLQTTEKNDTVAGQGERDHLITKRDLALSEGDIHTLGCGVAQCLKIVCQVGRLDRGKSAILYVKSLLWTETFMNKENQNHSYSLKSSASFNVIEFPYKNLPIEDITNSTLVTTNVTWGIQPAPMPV
T1 sequence (P05106 27-718 limits assumed, chain 2 of 2): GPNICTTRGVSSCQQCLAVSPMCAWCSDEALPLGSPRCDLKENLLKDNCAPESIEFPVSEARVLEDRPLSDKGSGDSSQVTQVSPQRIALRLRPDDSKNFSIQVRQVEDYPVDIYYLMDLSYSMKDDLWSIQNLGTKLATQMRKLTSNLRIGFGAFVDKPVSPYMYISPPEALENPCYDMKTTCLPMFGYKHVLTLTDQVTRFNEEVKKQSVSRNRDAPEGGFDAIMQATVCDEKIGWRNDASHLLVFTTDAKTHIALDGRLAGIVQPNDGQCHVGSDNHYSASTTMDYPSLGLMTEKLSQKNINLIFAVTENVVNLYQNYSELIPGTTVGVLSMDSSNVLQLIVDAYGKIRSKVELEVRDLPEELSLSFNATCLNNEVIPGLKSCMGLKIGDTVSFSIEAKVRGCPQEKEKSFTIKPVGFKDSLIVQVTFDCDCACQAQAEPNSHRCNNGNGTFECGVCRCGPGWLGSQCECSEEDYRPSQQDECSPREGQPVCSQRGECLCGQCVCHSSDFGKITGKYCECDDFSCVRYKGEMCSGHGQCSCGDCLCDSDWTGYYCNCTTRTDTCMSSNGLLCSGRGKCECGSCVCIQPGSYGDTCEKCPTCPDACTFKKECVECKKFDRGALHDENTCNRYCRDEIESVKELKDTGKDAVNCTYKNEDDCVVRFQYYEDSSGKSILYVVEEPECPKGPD

[2] = molecular target: T1, human αvβ3 integrin ITGAVB3; assay: SPR, αvβ3 integrin immobilised on a CMDH chip (Reichert SR7500DC), nanobody as analyte; fitted kd from the table box in the panel; the box prints no unit, s^-1 is from the head of Table 8, where the text prints this cell as 8.02(2)e4
Procedure: (§1) Specifically, a CMDH chip (Carboxymethyl Dextran Hydrogel Surface Sensor Chip, Reichert Technologies) coated with Dextran was mounted on an SPR equipment (Reichert SR7500DC system) to perform immobilization of αᵥβ₃ integrin antigen. Then, an analysis of the affinity of the selected antibody based on the concentration was performed.

[3] = molecular target: T1, human αvβ3 integrin ITGAVB3; assay: SPR, αvβ3 integrin immobilised on CMDH chip, nanobody as analyte
Procedure: as §1

[4] = molecular target: T1, human αvβ3 integrin ITGAVB3; assay: ELISA of soluble VHH (TG1 lysate), induced at 37 C, coated ITGAVB3
[5] = molecular target: T1, human αvβ3 integrin ITGAVB3; assay: phage ELISA, coated ITGAVB3, anti-M13-HRP, 490 nm
Procedure: Further, in order to perform phage ELISA, 2.5 μg/mL to […] of a target protein and a control protein were coated at 4 degrees C. using a coating buffer, and the wells were washed 3 times with 200 μL washing buffer per well. The wells were blocked with 200 μL PBS-M for two hours at room temperature. The blocking buffer was removed and the plate was washed 6 times with the washing solution. Thereafter, 100 μL of phage solution was added to the washing buffer per well and incubation was executed at room temperature for 1 to 2 hours. Then, washing was performed 6 times with washing buffer. HRP-binding anti-M13 antibody (GE healthcare) was diluted with 1:5,000 blocking buffer. 100 μL of diluted conjugate was added onto each well, and incubation was performed at room temperature for 1 hour, and washing was carried out 6 times with washing buffer. The HRP substrate solution was prepared as follows: A stock solution of OPD was prepared by dissolving 22 mg OPD (Sigma) in 100 mL of […] sodium citrate (pH 4.0), and 36 μL 30% H₂O₂ was added to 21 mL of OPL stock solution immediately before the detection step. 100 μL of substrate solution was added to each well and incubation was performed for 30 minutes at room temperature. Plates were analyzed using a micro plate reader set at 490 nm.

[6] = molecular target: T1, human αvβ3 integrin ITGAVB3; assay: ELISA of soluble VHH, induced at 30 C; coating not given
[7] = molecular target: T1, human αvβ3 integrin ITGAVB3; assay: ELISA of soluble VHH (TG1 lysate), induced at 30 C, coated ITGAVB3
[8] = molecular target: T1, human αvβ3 integrin ITGAVB3; assay: ELISA of soluble VHH, induced at 37 C; coating not given

Molecule	OD490 [1]	koff [2]	Kd [3]	koff [3]	kon [3]	OD490 [4]	OD490 [5]	OD490 [6]	OD490 [7]	OD490 [8]
M13KO7 helper phage	0.09									
B1		0.000802 s⁻¹	4.64 nM	0.000802 s⁻¹	173000 M⁻¹ s⁻¹					
B2						2.03	2.03	1.05	2.01	0.193
B3						0.16	2.04	0.141	0.179	0.113
